Molecular target: T1, PUF4 RNA-binding domain (Saccharomyces cerevisiae, UniProt P25339 537-888)
T1 sequence: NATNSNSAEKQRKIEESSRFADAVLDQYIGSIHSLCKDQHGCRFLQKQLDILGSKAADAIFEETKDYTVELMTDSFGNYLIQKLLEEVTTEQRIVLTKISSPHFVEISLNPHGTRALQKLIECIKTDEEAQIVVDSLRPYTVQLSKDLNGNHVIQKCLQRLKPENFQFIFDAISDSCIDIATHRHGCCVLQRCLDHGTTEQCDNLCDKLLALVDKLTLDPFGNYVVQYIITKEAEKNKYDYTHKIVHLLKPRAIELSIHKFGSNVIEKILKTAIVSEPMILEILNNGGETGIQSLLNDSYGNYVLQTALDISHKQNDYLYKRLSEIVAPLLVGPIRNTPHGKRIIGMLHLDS
Assay: Mg; RNA-MaP; 20 mM Na-HEPES pH 7.4, 30 mM KOAc, 0.75 mM MgCl2, 0.1% Tween-20, 5% glycerol, 0.1 mg/mL BSA, 2 mM DTT; 25 C; 0.0125-409.6 nM protein
Details: tags: N-His6-TEV cleaved; C-SNAP kept, Cy3B-labelled; label: tethered on chip by stalled RNA polymerase

Row | Binder | Kd [nM]
1 | Id_ii_S2_P5E.4_K5.3_C5.2_[T-1A]_H5.3_A5.1_F5.1_T5.2_[T11C]_[A12G] (ssRNA) RNA: UUUGAUUAAUAUGAUAUCGUUCUUUCUCAACACUUAUUACGUUCUUUCUCGAUAUCAUAUUAAUCUUU | > 2300
2 | UCUCUUUGUAUAAUAAUCUCUU (ssRNA) [Ib_S1_P5E.1_K5.1_C5.1_H5.1_A5.1_[T6A]_F5.1_[T9A]_T5.1] | 1.68
3 | Id_ii_S2_P5E.4_K5.3_C5.2_[T-1A]_H5.3_A5.1_F5.1_T5.2_[T11C]_[A12C] (ssRNA) RNA: UUUGAUUAAUAUGAUAUCGUUCUUUCUCAACACUUAUUACCUUCUUUCUCGAUAUCAUAUUAAUCUUU | > 2300
4 | Id_ii_S2_P5E.4_K5.3_C5.2_[T-1A]_H5.3_A5.1_F5.1_T5.2_[T11C]_[A12T] (ssRNA) RNA: UUUGAUUAAUAUGAUAUCGUUCUUUCUCAACACUUAUUACUUUCUUUCUCGAUAUCAUAUUAAUCUUU | > 2300
5 | Id_ii_S2_P5E.4_K5.3_C5.2_[T-1A]_H5.3_A5.1_F5.1_T5.2_[T11C] (ssRNA) RNA: UUUGAUUAAUAUGAUAUCGUUCUUUCUCAACACUUAUUACAUUCUUUCUCGAUAUCAUAUUAAUCUUU | > 2300
6 | Id_ii_S2_P5E.4_K5.3_C5.2_[T-1A]_H5.3_A5.1_F5.1_T5.2_[T11A]_[A12T] (ssRNA) RNA: UUUGAUUAAUAUGAUAUCGUUCUUUCUCAACACUUAUUAAUUUCUUUCUCGAUAUCAUAUUAAUCUUU | > 2300
7 | Id_ii_S2_P5E.4_K5.3_C5.2_[T-1A]_H5.3_A5.1_F5.1_T5.2_[A12C] (ssRNA) RNA: UUUGAUUAAUAUGAUAUCGUUCUUUCUCAACACUUAUUAUCUUCUUUCUCGAUAUCAUAUUAAUCUUU | > 2300
8 | Id_ii_S2_P5E.4_K5.3_C5.2_[T-1A]_H5.3_A5.1_F5.1_T5.2_[A12T] (ssRNA) RNA: UUUGAUUAAUAUGAUAUCGUUCUUUCUCAACACUUAUUAUUUUCUUUCUCGAUAUCAUAUUAAUCUUU | > 2300
9 | Id_ii_S2_P5E.4_K5.3_C5.2_[T-1A]_H5.3_A5.1_F5.1_T5.2 (ssRNA) RNA: UUUGAUUAAUAUGAUAUCGUUCUUUCUCAACACUUAUUAUAUUCUUUCUCGAUAUCAUAUUAAUCUUU | 591
10 | Id_ii_S2_P5E.4_K5.3_C5.2_H5.3_A5.1_F5.1_T5.2_[T11G]_[A12C] (ssRNA) RNA: UUUGAUUAAUAUGAUAUCGUUCUUUCUCUACACUUAUUAGCUUCUUUCUCGAUAUCAUAUUAAUCUUU | > 2300
11 | Id_ii_S2_P5E.4_K5.3_C5.2_H5.3_A5.1_F5.1_T5.2_[T11C]_[A12C] (ssRNA) RNA: UUUGAUUAAUAUGAUAUCGUUCUUUCUCUACACUUAUUACCUUCUUUCUCGAUAUCAUAUUAAUCUUU | > 2300
12 | Id_ii_S2_P5E.4_K5.3_C5.2_H5.3_A5.1_F5.1_T5.2_[T11C]_[A12T] (ssRNA) RNA: UUUGAUUAAUAUGAUAUCGUUCUUUCUCUACACUUAUUACUUUCUUUCUCGAUAUCAUAUUAAUCUUU | > 2300
13 | UCUCUUUGUAUUCUGAUCUCUU (ssRNA) [Ib_S1_P5E.1_K5.1_C5.1_H5.1_A5.1_[A7C]_F5.1_[T9G]_T5.1] | 60.1
14 | Id_ii_S2_P5E.4_K5.3_C5.2_H5.3_A5.1_F5.1_T5.2_[T11C] (ssRNA) RNA: UUUGAUUAAUAUGAUAUCGUUCUUUCUCUACACUUAUUACAUUCUUUCUCGAUAUCAUAUUAAUCUUU | > 2300
15 | Id_ii_S2_P5E.4_K5.3_C5.2_H5.3_A5.1_F5.1_T5.2_[T11A]_[A12C] (ssRNA) RNA: UUUGAUUAAUAUGAUAUCGUUCUUUCUCUACACUUAUUAACUUCUUUCUCGAUAUCAUAUUAAUCUUU | > 2300
16 | Id_ii_S2_P5E.4_K5.3_C5.2_H5.3_A5.1_F5.1_T5.2_[T11A]_[A12T] (ssRNA) RNA: UUUGAUUAAUAUGAUAUCGUUCUUUCUCUACACUUAUUAAUUUCUUUCUCGAUAUCAUAUUAAUCUUU | > 2300
17 | Id_ii_S2_P5E.4_K5.3_C5.2_H5.3_A5.1_F5.1_T5.2_[A12C] (ssRNA) RNA: UUUGAUUAAUAUGAUAUCGUUCUUUCUCUACACUUAUUAUCUUCUUUCUCGAUAUCAUAUUAAUCUUU | > 2300
18 | Id_ii_S2_P5E.4_K5.3_C5.2_H5.3_A5.1_F5.1_T5.2_[A12T] (ssRNA) RNA: UUUGAUUAAUAUGAUAUCGUUCUUUCUCUACACUUAUUAUUUUCUUUCUCGAUAUCAUAUUAAUCUUU | 2240
19 | Id_ii_S2_P5E.4_K5.3_C5.2_H5.3_A5.1_F5.1_T5.2 (ssRNA) RNA: UUUGAUUAAUAUGAUAUCGUUCUUUCUCUACACUUAUUAUAUUCUUUCUCGAUAUCAUAUUAAUCUUU | 548
20 | ACAAACGGUAUAUAUAGAACAAAC (ssRNA) [Id_ii_S3_P3E.3_K3.2_C3.2_[C-2G]_[T-1G]_H3.2_A3.1_F3.1_T3.2_[T9G]] | 128
21 | ACAAACGGUAUAUAUAACACAAAC (ssRNA) [Id_ii_S3_P3E.3_K3.2_C3.2_[C-2G]_[T-1G]_H3.2_A3.1_F3.1_T3.2_[T9A]_[A10C]] | 509

Row | Binder | Kd [nM]
22 | ACAAACGGUAUAUAUAUGACAAAC (ssRNA) [Id_ii_S3_P3E.3_K3.2_C3.2_[C-2G]_[T-1G]_H3.2_A3.1_F3.1_T3.2_[A10G]] | 552
23 | ACAAACGCUAUAUAUACUACAAAC (ssRNA) [Id_ii_S3_P3E.3_K3.2_C3.2_[C-2G]_[T-1C]_H3.2_A3.1_F3.1_T3.2_[T9C]_[A10T]] | 34.2
24 | UCUCUUUGUAUUUUGAUCUCUU (ssRNA) [Ib_S1_P5E.1_K5.1_C5.1_H5.1_A5.1_[A7T]_F5.1_[T9G]_T5.1] | 17.1
25 | ACAAACGCUAUAUAUAACACAAAC (ssRNA) [Id_ii_S3_P3E.3_K3.2_C3.2_[C-2G]_[T-1C]_H3.2_A3.1_F3.1_T3.2_[T9A]_[A10C]] | 1130
26 | ACAAACGCUAUAUAUAUCACAAAC (ssRNA) [Id_ii_S3_P3E.3_K3.2_C3.2_[C-2G]_[T-1C]_H3.2_A3.1_F3.1_T3.2_[A10C]] | 836
27 | ACAAACGCUAUAUAUAUUACAAAC (ssRNA) [Id_ii_S3_P3E.3_K3.2_C3.2_[C-2G]_[T-1C]_H3.2_A3.1_F3.1_T3.2_[A10T]] | 45.1
28 | ACAAACGAUAUAUAUAGGACAAAC (ssRNA) [Id_ii_S3_P3E.3_K3.2_C3.2_[C-2G]_[T-1A]_H3.2_A3.1_F3.1_T3.2_[T9G]_[A10G]] | 535
29 | ACAAACGAUAUAUAUAGUACAAAC (ssRNA) [Id_ii_S3_P3E.3_K3.2_C3.2_[C-2G]_[T-1A]_H3.2_A3.1_F3.1_T3.2_[T9G]_[A10T]] | 62.3
30 | ACAAACGAUAUAUAUACAACAAAC (ssRNA) [Id_ii_S3_P3E.3_K3.2_C3.2_[C-2G]_[T-1A]_H3.2_A3.1_F3.1_T3.2_[T9C]] | 839
31 | ACAAACGAUAUAUAUAAGACAAAC (ssRNA) [Id_ii_S3_P3E.3_K3.2_C3.2_[C-2G]_[T-1A]_H3.2_A3.1_F3.1_T3.2_[T9A]_[A10G]] | 786
32 | ACAAACGAUAUAUAUAACACAAAC (ssRNA) [Id_ii_S3_P3E.3_K3.2_C3.2_[C-2G]_[T-1A]_H3.2_A3.1_F3.1_T3.2_[T9A]_[A10C]] | 969
33 | ACAAACGAUAUAUAUAAUACAAAC (ssRNA) [Id_ii_S3_P3E.3_K3.2_C3.2_[C-2G]_[T-1A]_H3.2_A3.1_F3.1_T3.2_[T9A]_[A10T]] | 115
34 | ACAAACGAUAUAUAUAAAACAAAC (ssRNA) [Id_ii_S3_P3E.3_K3.2_C3.2_[C-2G]_[T-1A]_H3.2_A3.1_F3.1_T3.2_[T9A]] | 1080
35 | UCUCUUUGUAUUGUCAUCUCUU (ssRNA) [Ib_S1_P5E.1_K5.1_C5.1_H5.1_A5.1_[A7G]_F5.1_[T9C]_T5.1] | 140
36 | ACAAACGUUAUAUAUAGUACAAAC (ssRNA) [Id_ii_S3_P3E.3_K3.2_C3.2_[C-2G]_H3.2_A3.1_F3.1_T3.2_[T9G]_[A10T]] | 292
37 | ACAAACGUUAUAUAUACCACAAAC (ssRNA) [Id_ii_S3_P3E.3_K3.2_C3.2_[C-2G]_H3.2_A3.1_F3.1_T3.2_[T9C]_[A10C]] | 1700
38 | ACAAACGUUAUAUAUAAUACAAAC (ssRNA) [Id_ii_S3_P3E.3_K3.2_C3.2_[C-2G]_H3.2_A3.1_F3.1_T3.2_[T9A]_[A10T]] | 660
39 | ACAAACGUUAUAUAUAUUACAAAC (ssRNA) [Id_ii_S3_P3E.3_K3.2_C3.2_[C-2G]_H3.2_A3.1_F3.1_T3.2_[A10T]] | 154
40 | ACAAACUCUAUAUAUAGCACAAAC (ssRNA) [Id_ii_S3_P3E.3_K3.2_C3.2_[C-2T]_[T-1C]_H3.2_A3.1_F3.1_T3.2_[T9G]_[A10C]] | 767
41 | ACAAACUCUAUAUAUACCACAAAC (ssRNA) [Id_ii_S3_P3E.3_K3.2_C3.2_[C-2T]_[T-1C]_H3.2_A3.1_F3.1_T3.2_[T9C]_[A10C]] | 771
42 | ACAAACUCUAUAUAUAACACAAAC (ssRNA) [Id_ii_S3_P3E.3_K3.2_C3.2_[C-2T]_[T-1C]_H3.2_A3.1_F3.1_T3.2_[T9A]_[A10C]] | 599
